The values that follow come from patent US20150218285A1 (TORAY INDUSTRIES, published 2015).

For test [1], the target named is T1, CAPRIN-1 protein on the cell surface of human cancer cells (human, UniProt Q14444 2-709).
T1 construct: whole, on cells; endogenous protein of human cancer cell lines
T1 sequence (looked up): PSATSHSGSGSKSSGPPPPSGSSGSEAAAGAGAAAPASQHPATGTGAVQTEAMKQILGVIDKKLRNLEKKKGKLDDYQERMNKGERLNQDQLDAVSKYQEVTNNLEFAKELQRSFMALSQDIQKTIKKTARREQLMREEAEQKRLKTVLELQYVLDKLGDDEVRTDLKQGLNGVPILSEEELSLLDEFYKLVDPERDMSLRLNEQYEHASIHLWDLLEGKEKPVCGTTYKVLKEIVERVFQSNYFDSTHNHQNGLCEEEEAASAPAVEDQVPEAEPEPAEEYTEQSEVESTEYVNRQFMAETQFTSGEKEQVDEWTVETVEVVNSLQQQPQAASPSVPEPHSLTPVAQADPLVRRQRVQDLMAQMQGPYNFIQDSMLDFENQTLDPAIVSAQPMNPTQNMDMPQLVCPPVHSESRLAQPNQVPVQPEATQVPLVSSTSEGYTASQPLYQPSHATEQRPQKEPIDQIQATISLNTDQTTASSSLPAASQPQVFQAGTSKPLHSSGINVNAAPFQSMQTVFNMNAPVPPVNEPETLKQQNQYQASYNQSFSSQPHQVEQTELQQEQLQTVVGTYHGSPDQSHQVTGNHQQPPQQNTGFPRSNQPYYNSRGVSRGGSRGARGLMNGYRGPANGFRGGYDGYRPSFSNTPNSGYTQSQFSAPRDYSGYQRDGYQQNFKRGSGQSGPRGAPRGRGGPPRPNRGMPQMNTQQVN
Briefly: flow cytometry on Hep3B, HepG2, SK-Hep-1, SW480; antibody 20 ug/mL; control: secondary antibody only. Here is the method: Four human liver cancer cell lines (Hep3 GB, HepG2, SK-Hep-1, and SW480) were investigated whether or not a CAPRIN-1 protein is expressed on the cell surface using mouse anti-CAPRIN-1 monoclonal antibodies #30 to #36. 5×10⁵ cells of each of the liver cancer cell lines were centrifuged with a 1.5-mL micro centrifugation tube. The cells were subjected to reaction with each of mouse anti-CAPRIN-1 antibodies #30 to #36 at a final concentration of 20 μg/mL, followed by being left to stand on ice for 1 hour. After washing with PBS, the cells were reacted with a 100-fold diluted Alexa488-labeled goat anti-mouse IgG antibody (manufactured by Invitrogen Corporation), followed by being left to stand on ice for […]. After washing with PBS, the fluorescence intensity was measured with FACS Calibur available from Becton, Dickinson and Company. Separately, the cells were subjected to reaction with only the secondary antibody as a negative control.

Test [2] addresses T2, polypeptide set forth in SEQ ID NO: 431 (human).
T2 peptide: VERVFQSNYFDSTHNH
Put plainly: ELISA on immobilised synthetic CAPRIN-1 peptides, culture supernatant. In general terms: In an ELISA, binding on a coated surface is turned into a signal by an enzyme label.

Test [3] deals with T3, polypeptide set forth in SEQ ID NO: 430 (human).
T3 peptide: ATQVPLVSSTSEGYTA
Briefly: ELISA on 93 synthetic CAPRIN-1 peptides, purified antibody 0.1 ug/mL. On the procedure:
Candidate peptides (93 peptides) each consisting of 12 to 16 amino acids of the amino acid sequence of the human CAPRIN-1 protein were synthesized and were each dissolved at a concentration of 1 mg/mL in DMSO. Each peptide was dissolved at a concentration of 30 μg/mL in a 0.1 M sodium carbonate buffer (pH 9.6). The solution was added to a 96-well plate (manufactured by Nunc, Product No. 436006) at 100 μL per well, followed by being left to stand at 4° C. overnight. The solution was removed, and 200 μL of 10 mM ethanolamine/0.1 M sodium carbonate buffer (pH 9.6) was added to each well, followed by being left to stand at room temperature for 1 hour. The solution was removed, and each well was washed with PBS containing 0.5% Tween 20 (PBST) twice to prepare a peptide-immobilized plate. For confirmation, this plate was also provided with a well to which the CAPRIN-1 protein was immobilized in accordance with the method described above. Rabbit anti-CAPRIN-1 monoclonal antibody #1 purified to a concentration of 0.1 ug/mL by a usual method was added to the plate at an amount of 50 μL per well, followed by shaking at room temperature for 1 hour. The solution was removed, and each well was washed with PBST three times. […] The absorbance was measured at 450 nm and 595 nm with an absorption spectrometer. […]

For test [4], the target named is T3, polypeptide set forth in SEQ ID NO: 430. Put plainly: ELISA as in Example 13(1), purified antibody.
Test [5] deals with T4, polypeptide comprising the amino acid sequence set forth in SEQ ID NO: 269 (human).
T4 peptide: PPVNEPETLKQQNQYQAS
Briefly: ELISA on immobilised synthetic CAPRIN-1 peptides, culture supernatant.

Test [6] has as its target T1, CAPRIN-1 protein on the cell surface of …. Put plainly: cell-based or functional assay.
For test [7] the target is unchanged. Briefly: flow cytometry on Hep3B, HepG2, SK-Hep-1, SW480; culture supernatant; vs isotype control. Here is the method:
Subsequently, four liver cancer cell lines (Hep3 GB, HepG2, SK-Hep-1, and SW480), which were confirmed to express a CAPRIN-1 gene, were investigated for whether or not a CAPRIN-1 protein is expressed on the surfaces of these cells. 1×10⁶ cells of each cell line were centrifuged with a 1.5-mL micro centrifugation tube. To the cells was added the culture supernatant (100 μL) containing any of mouse monoclonal antibodies #1 to #22 against a CAPRIN-1 protein reacting to cancer cell surface produced in Example 4 and mouse-chicken chimeric antibodies #1 to #3 against a CAPRIN-1 protein produced in the above (2), followed by being left to stand on ice for 1 hour. After washing with PBS, the cells were suspended in a FITC-labeled goat anti-mouse IgG antibody (manufactured by Invitrogen Corporation) diluted by 500-fold with PBS containing 0.1% FBS, followed by being left to stand on ice for 1 hour. After washing with PBS, the fluorescence intensity was measured with FACS Calibur available from Becton, Dickinson and Company. Separately, as a control, the same procedure as in above was performed using an iso-type control antibody, instead of the culture supernatants containing the mouse monoclonal antibodies #1 to #22 against a CAPRIN-1 protein and the mouse-chicken chimeric antibodies #1 to #3. As a result, the fluorescence intensity in the cells to which any of the monoclonal antibodies #1 to #22 and the mouse-chicken chimeric antibodies #1 to #3 was added was 20% or more higher than that in the control in every case. Specifically, in the case of using mouse-chicken chimeric antibody #1, the fluorescence intensity was enhanced by 200% or more in both SK-Hep-1 and Hep3B. […] The rate of increase in the fluorescence intensity is represented by the rate of increase in the mean fluorescence intensity (MFI value) in each cell and is calculated by the following calculation formula: […]
(A flow cytometer gives signals particle by particle.)

For test [8], the target named is T5, peptide set forth in SEQ ID NO: 268 (human).
T5 peptide: FTSGEKEQVDEW
Briefly: ELISA on immobilised synthetic CAPRIN-1 peptides, culture supernatant.

In test [9] the target is T6, polypeptide set forth in SEQ ID NO: 266 (human).
T6 construct: identified by ELISA on synthetic 12-16 aa peptides of human CAPRIN-1
T6 peptide: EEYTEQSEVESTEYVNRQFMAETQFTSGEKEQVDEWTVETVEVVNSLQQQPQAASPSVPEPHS
Described as above.

B1: mouse anti-CAPRIN-1 antibody #31 (antibody, V domains shown)
VH: GPELVKPGASVKISCKASGYSFTGYFMNWVMQSHGKSLEWIGRINPYNGDTFYNQKFKGKATLTVDKSSSTAHMELRSLASEDSAVYYCARRIHYYYGSSYYAMDYWGQEPHH
VL: DVQITQSPSYLAASPGETITINCRASKSISKYLAWYQEKPGKTNKLLIYSGSTLQSGIPSRFSGSGSGTDFTLTISSLEPEDFAMYYCQQHNEYPWTFGGGTKLEIKR
notes: mouse hybridoma antibody; also called mouse anti-CAPRIN-1 monoclonal antibody #31
With B1, in test [1], the “increase in fluorescence intensity over the control” value is not below 35%.

B2: mouse anti-CAPRIN-1 antibody #34 (antibody, V domains shown)
VH: GAELVRPGTSVKVSCKASVYAFTNYLIEWVKQRPGQGLEWIGVINPKSGGTKYNEKFRGKATLTADKSSSTAYMQLSSLTSGDSAVYFCAITGTDYWGQGTTLTVSS
VL: QGTRCDIQMTQTTSSLSASLGDRVTISCSASQGINNYLNWYQQKPDGTVKLLIYYTSSLRSGVPSRFSGSGSGTDYSLTISNLEPEDVATYYCQQYSKLPRTFGGGTKLEIKR
notes: mouse hybridoma antibody; also called mouse anti-CAPRIN-1 monoclonal antibody #34; mouse anti-CAPRN-1 antibody #34
On to B2, for which the binding result in test [2] is “binds”. Besides, the “increase in fluorescence intensity over the control” value in test [1] was not below 35%.

B3: rabbit anti-CAPRIN-1 monoclonal antibody #1 (antibody, V domains shown)
VH: QSLEESGGDLVKPGASLTLTCTASGFSFSGSYYMSWVRQAPGKGLEWIAYIYIGDGVTAYANWAKGRFTISKASSTTVTLQMTSLTAADTATYFCARGNKLWGPGTLVTVSS
VL: DVVMTQTPASVEAAVGGTVTIKCQASQSISSYLAWYQQKPGQPPKRLIYDASNLDSGVPSRFKGSGSGTDFTITISDLECADAATYYCQCTAVSSATIYGNAFGGGTEVVVK
notes: rabbit hybridoma antibody
In the case of B3, the binding result in [3] is given as “binds”.

B4: human-rabbit chimeric anti-CAPRIN-1 antibody #1 (antibody, V domains shown)
VH: B3 VH
VL: B3 VL
notes: also called human-rabbit chimeric anti-CAPRIN-1 monoclonal antibody #1
Turning to B4, the binding result in [4] was “binds”.

B5: human-chicken chimeric antibody #3 (antibody, human IgG1, kappa, V domains shown)
VH: AVTLDESGGGLQTPGGALSLVCKASGFTFSGYDMLWVRQAPGKGLEWVAGIGSTGGGTDYGAAVKGRATISRDNGQSTVRLQLNNLRAEDTATYYCAKVAGGCNSGYCRDSPGSIDAWGHGTEVIVSA
VL: AVTQQPASVSANPGETVKITCSGGGSRNYYGWYQQKSPGSVPVTVIYYDDQRPSNIPSRFSGALSGSTSTLTITGVQADDEAVYFCGSADSNTYEGSFGAGTTLTVLT
notes: produced similarly to human-chicken chimeric antibody #1 from chicken monoclonal antibody #3; human IgG1 constant domains; also called human-chicken chimeric monoclonal antibody #3
For B5, in test [5], the binding result is given as “binds”. In addition, the “cytotoxicity (ADCC, 51Cr release) on SK-Hep-1” value in test [6] is not below 12%.

B6: mouse monoclonal antibody #5 (antibody, V domains shown)
VH: DAELVKPGASVKISCKASGYTFTDHSIHWVQQKPEQGLEWIGYISPGNGNIKYNEKFKGKATLTADKSSSTAYMQLNSLTSEDSAVYFCKRSLGRGGPYYFDYWGQGTTVTVSS
VL: DIVLTQAAPSLPVTPGESVSISCRSSKSLLHSNGNTYLYWFLQRPGQSPQLLIYRMSNLASGVPDRFSGSGSGTAFTLRISRVEAEDVGVYYCMQHREYPVTFGSGPN
notes: mouse hybridoma antibody
Regarding B6, the “rate of increase in mean fluorescence intensity” value in test [7] was not below 20%. For the same molecule, the binding result in test [8] and in test [9] was “binds” throughout. Further, in test [6], the “cytotoxicity (ADCC, 51Cr release) on SK-Hep-1” value was not below 12%.
